# Tests used:
# Assay in all cases: pull-down binding Z-score (relative to library population); higher = stronger binding
# [1] = test system: TO-3-N3-2 (biotin conjugate); settings: RNA library: Library-2
# In short: (§1)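 Streptavidin beads with 100 pmol of biotin-conjugated small molecule were incubated for 60 min at 25 °C with 1 μg of heat-folded Cy5- or Cy3-end-labelled RNA library in phosphate/NaCl/KCl buffer. Bound RNA was eluted in hot SDS after three washes and hybridised to a DNA barcode microarray at 55.5 °C for 20 h. Each binding score is a library-referenced Z-score, computed after beads-only subtraction and a trimmed mean of barcoded replicate probes.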
# [2] = test system: TO-3-N3 (biotin conjugate); settings: RNA library: Library-2
# In short: as §1
# [3] = test system: G-clamp-N3 (biotin conjugate); settings: RNA library: Library-1 (pre-miRNA loops + repeats)
# In short: as §1
# [4] = test system: TO-N3-2 (biotin conjugate); settings: RNA library: Library-2
# In short: as §1
# TO-N3 (biotin conjugate) = settings: RNA library: Library-2
# In short: as §1
sequence,measurement,setting,value
GUGUCCUUUCUUCUGAGAGCUGGACAC [hsa-mir-6500],pull-down binding Z-score,[1],-0.39
same,pull-down binding Z-score,[2],-0.375
same,pull-down binding Z-score,[3],0.00177
same,pull-down binding Z-score,[4],-0.336
same,pull-down binding Z-score,TO-N3 (biotin conjugate),-0.527
GUGUCGCCCCACGAGGGGGACUGU [hsa-mir-4322],pull-down binding Z-score,[1],-0.362
same,pull-down binding Z-score,[2],-0.00462
same,pull-down binding Z-score,[3],-0.152
same,pull-down binding Z-score,[4],0.483
same,pull-down binding Z-score,TO-N3 (biotin conjugate),0.327
GUGUCUGGAGACGCCAGGCAGC [hsa-mir-4323],pull-down binding Z-score,[1],-0.352
same,pull-down binding Z-score,[2],-0.154
same,pull-down binding Z-score,[3],-0.529
same,pull-down binding Z-score,[4],1.13
same,pull-down binding Z-score,TO-N3 (biotin conjugate),0.127
GUGUCUGGCCCCAGCAGCCCAGACU [hsa-mir-6751],pull-down binding Z-score,[1],-0.171
same,pull-down binding Z-score,[2],0.258
same,pull-down binding Z-score,[3],-0.568
same,pull-down binding Z-score,[4],1.39
same,pull-down binding Z-score,TO-N3 (biotin conjugate),0.766
GUGUGGAGAGAGCACUGAGCCUGCCCACC [hsa-mir-6849],pull-down binding Z-score,[1],-0.152
same,pull-down binding Z-score,[2],-0.134
same,pull-down binding Z-score,[3],-0.498
same,pull-down binding Z-score,[4],1.45
same,pull-down binding Z-score,TO-N3 (biotin conjugate),0.55
GUGUGUGGCGUGGGUGCUGCGGGGCCGUCAGGGUGCCUGCGGGACGCUCAC [hsa-mir-6765],pull-down binding Z-score,[1],0.334
same,pull-down binding Z-score,[2],0.665
same,pull-down binding Z-score,[3],1.58
same,pull-down binding Z-score,[4],1.73
same,pull-down binding Z-score,TO-N3 (biotin conjugate),1.13
GUGUGUUACCUAGAAAUAGCACU [hsa-mir-378a],pull-down binding Z-score,[1],-0.165
same,pull-down binding Z-score,[2],-0.283
same,pull-down binding Z-score,[3],-1.11
same,pull-down binding Z-score,[4],-0.118
same,pull-down binding Z-score,TO-N3 (biotin conjugate),-0.282
GUGUUCACACAUAAUGUGUACACCAUGUGUGUACAC [hsa-mir-5692b],pull-down binding Z-score,[1],-0.272
same,pull-down binding Z-score,[2],0.192
same,pull-down binding Z-score,[3],-0.31
same,pull-down binding Z-score,[4],-0.606
same,pull-down binding Z-score,TO-N3 (biotin conjugate),0.022
GUGUUGGGUAUAAGUAACA [hsa-mir-1270],pull-down binding Z-score,[1],0.157
same,pull-down binding Z-score,[2],-0.205
same,pull-down binding Z-score,[3],-0.877
same,pull-down binding Z-score,[4],0.457
same,pull-down binding Z-score,TO-N3 (biotin conjugate),0.257
GUGUUUAUUUUUUACUAAAUAG [hsa-mir-4766],pull-down binding Z-score,[1],0.102
same,pull-down binding Z-score,[2],-0.515
same,pull-down binding Z-score,[3],-0.918
same,pull-down binding Z-score,[4],-0.723
same,pull-down binding Z-score,TO-N3 (biotin conjugate),-0.451
GUGUUUGUGACAUAAUUUGU [hsa-mir-325],pull-down binding Z-score,[1],0.252
same,pull-down binding Z-score,[2],0.174
same,pull-down binding Z-score,[3],-1.02
same,pull-down binding Z-score,[4],-0.231
same,pull-down binding Z-score,TO-N3 (biotin conjugate),0.0205
GUGUUUUCUCCUUUAGAGAGAGCUG [hsa-mir-4299],pull-down binding Z-score,[1],-0.23
same,pull-down binding Z-score,[2],-0.542
same,pull-down binding Z-score,[3],0.765
same,pull-down binding Z-score,[4],0.309
same,pull-down binding Z-score,TO-N3 (biotin conjugate),-0.257
GUUACUAAUCUAACUAAUUGUAAC [hsa-mir-582],pull-down binding Z-score,[1],0.0952
same,pull-down binding Z-score,[2],0.0863
same,pull-down binding Z-score,[3],1.11
same,pull-down binding Z-score,[4],-0.722
same,pull-down binding Z-score,TO-N3 (biotin conjugate),0.00217
GUUACUGUGGGAACUGGAGGUAAC [hsa-mir-132],pull-down binding Z-score,[1],0.489
same,pull-down binding Z-score,[2],0.839
same,pull-down binding Z-score,[3],2.34
same,pull-down binding Z-score,[4],0.708
same,pull-down binding Z-score,TO-N3 (biotin conjugate),1.1
GUUAGACCUGGCCCUCUGUCUAAU [hsa-mir-429],pull-down binding Z-score,[1],-0.136
same,pull-down binding Z-score,[2],0.355
same,pull-down binding Z-score,[3],-0.787
same,pull-down binding Z-score,[4],0.3
same,pull-down binding Z-score,TO-N3 (biotin conjugate),0.564
GUUAGUUGUGGACACAUACUAAC [hsa-mir-3912],pull-down binding Z-score,[1],-0.735
same,pull-down binding Z-score,[2],-0.764
same,pull-down binding Z-score,[3],-0.0574
same,pull-down binding Z-score,[4],-1.25
same,pull-down binding Z-score,TO-N3 (biotin conjugate),-1.19
GUUCAGAGUCUGUUUUUGUCUAGC [hsa-mir-29c],pull-down binding Z-score,[1],0.0089
same,pull-down binding Z-score,[2],-0.508
same,pull-down binding Z-score,[3],-0.124
same,pull-down binding Z-score,[4],-0.0332
same,pull-down binding Z-score,TO-N3 (biotin conjugate),-0.313
GUUCCUGUGAUUUUUC [hsa-mir-198],pull-down binding Z-score,[1],-0.212
same,pull-down binding Z-score,[2],-0.267
same,pull-down binding Z-score,[3],-0.819
same,pull-down binding Z-score,[4],-0.289
same,pull-down binding Z-score,TO-N3 (biotin conjugate),-0.29
GUUCGCUUAAUUUAUGACGAAUC [hsa-mir-487a],pull-down binding Z-score,[1],-0.215
same,pull-down binding Z-score,[2],-0.221
same,pull-down binding Z-score,[3],0.269
same,pull-down binding Z-score,[4],-0.483
same,pull-down binding Z-score,TO-N3 (biotin conjugate),-0.395
GUUCGGGGGUUCCGACGGCGAC [hsa-mir-6790],pull-down binding Z-score,[1],0.957
same,pull-down binding Z-score,[2],2.61
same,pull-down binding Z-score,[3],3.09
same,pull-down binding Z-score,[4],1.76
same,pull-down binding Z-score,TO-N3 (biotin conjugate),2.67
GUUGAAAAAUAUCUAUGUAUUAGUAAAC [hsa-mir-649],pull-down binding Z-score,[1],-0.281
same,pull-down binding Z-score,[2],-0.0443
same,pull-down binding Z-score,[3],-0.475
same,pull-down binding Z-score,[4],-0.74
same,pull-down binding Z-score,TO-N3 (biotin conjugate),-0.151
GUUGACUGUUGAAUCUCAUGGCAAC [hsa-mir-21],pull-down binding Z-score,[1],-0.186
same,pull-down binding Z-score,[2],-0.114
same,pull-down binding Z-score,[3],-0.474
same,pull-down binding Z-score,[4],0.204
same,pull-down binding Z-score,TO-N3 (biotin conjugate),0.0029
GUUGCAUGUUGUCACGGCCUCAAUGCAAU [hsa-mir-32],pull-down binding Z-score,[1],-0.202
same,pull-down binding Z-score,[2],-0.164
same,pull-down binding Z-score,[3],-1.33
same,pull-down binding Z-score,[4],0.552
same,pull-down binding Z-score,TO-N3 (biotin conjugate),0.0815
GUUGCUUAGAUUACAUGUAAC [hsa-mir-890],pull-down binding Z-score,[1],-0.214
same,pull-down binding Z-score,[2],-0.632
same,pull-down binding Z-score,[3],-0.226
same,pull-down binding Z-score,[4],0.419
same,pull-down binding Z-score,TO-N3 (biotin conjugate),-0.579
GUUGGAUGGUCUAAUUGUGAAGCUCCUAAC [hsa-mir-141],pull-down binding Z-score,[1],-0.259
same,pull-down binding Z-score,[2],-0.103
same,pull-down binding Z-score,[3],-0.549
same,pull-down binding Z-score,[4],-0.0552
same,pull-down binding Z-score,TO-N3 (biotin conjugate),-0.138
GUUGGCUCAAGAAAGGGAGAUAGAUGGUAGCCC [hsa-mir-6884],pull-down binding Z-score,[1],1.51
same,pull-down binding Z-score,[2],1.71
same,pull-down binding Z-score,[3],0.473
same,pull-down binding Z-score,[4],3.94
same,pull-down binding Z-score,TO-N3 (biotin conjugate),1.94
GUUGGGAUUGAGUUUUGAACUCGGC [hsa-mir-196a-2],pull-down binding Z-score,[1],-0.0929
same,pull-down binding Z-score,[2],0.00707
same,pull-down binding Z-score,[3],0.29
same,pull-down binding Z-score,[4],-0.0161
same,pull-down binding Z-score,TO-N3 (biotin conjugate),-0.0442
GUUGGGCAUCCACAGUCUCCCACC [hsa-mir-1911],pull-down binding Z-score,[1],-0.322
same,pull-down binding Z-score,[2],-0.0617
same,pull-down binding Z-score,[3],-1.43
same,pull-down binding Z-score,[4],0.612
same,pull-down binding Z-score,TO-N3 (biotin conjugate),0.206
GUUGGGGAACAGGUGGUUAGCACUUCAU [hsa-mir-5196],pull-down binding Z-score,[1],0.521
same,pull-down binding Z-score,[2],1.07
same,pull-down binding Z-score,[3],0.351
same,pull-down binding Z-score,[4],0.81
same,pull-down binding Z-score,TO-N3 (biotin conjugate),1.35
GUUGUUGUCUUACUGCGCUCAACAAC [hsa-mir-7-2],pull-down binding Z-score,[1],-0.285
same,pull-down binding Z-score,[2],0.0252
same,pull-down binding Z-score,[3],0.767
same,pull-down binding Z-score,[4],-0.241
same,pull-down binding Z-score,TO-N3 (biotin conjugate),-0.0893
GUUGUUGUGAGCAAUAGUAAGGAAGCAAU [hsa-mir-34a],pull-down binding Z-score,[1],0.501
same,pull-down binding Z-score,[2],0.276
same,pull-down binding Z-score,[3],0.984
same,pull-down binding Z-score,[4],0.486
same,pull-down binding Z-score,TO-N3 (biotin conjugate),0.423
GUUGUUUUUAGAUAACUAAAUCGACAAC [hsa-mir-7-1],pull-down binding Z-score,[1],0.0396
same,pull-down binding Z-score,[2],0.721
same,pull-down binding Z-score,[3],0.109
same,pull-down binding Z-score,[4],0.0256
same,pull-down binding Z-score,TO-N3 (biotin conjugate),0.59
GUUUACGUGAUUCCUGGUUAAUC [hsa-mir-376b],pull-down binding Z-score,[1],-0.0636
same,pull-down binding Z-score,[2],-0.121
same,pull-down binding Z-score,[3],0.375
same,pull-down binding Z-score,[4],-0.0759
same,pull-down binding Z-score,TO-N3 (biotin conjugate),-0.0962
GUUUAUUUUGUAGC [hsa-mir-4317],pull-down binding Z-score,[1],-0.0511
same,pull-down binding Z-score,[2],0.299
same,pull-down binding Z-score,[3],-1.09
same,pull-down binding Z-score,[4],-0.593
same,pull-down binding Z-score,TO-N3 (biotin conjugate),0.221
GUUUCUAAAAAAAUAAAAAGUUAAAAAAAUUUAUGUUAACGUGUAAUGUGUUUACUAAUUUUUUUUUUUUUUUUUGGAGAC [hsa-mir-3908],pull-down binding Z-score,[1],0.349
same,pull-down binding Z-score,[2],-0.27
same,pull-down binding Z-score,[3],-1.28
same,pull-down binding Z-score,[4],-0.771
same,pull-down binding Z-score,TO-N3 (biotin conjugate),-0.136
GUUUCUGUUGUCUGAAAGGAAAGAAAG [hsa-mir-520e],pull-down binding Z-score,[1],-0.346
same,pull-down binding Z-score,[2],-0.489
same,pull-down binding Z-score,[3],-1.01
same,pull-down binding Z-score,[4],0.25
same,pull-down binding Z-score,TO-N3 (biotin conjugate),-0.486
GUUUGAUAGUUUAGACACAAAC [hsa-mir-3591],pull-down binding Z-score,[1],0.11
same,pull-down binding Z-score,[2],0.44
same,pull-down binding Z-score,[3],0.0903
same,pull-down binding Z-score,[4],-0.389
same,pull-down binding Z-score,TO-N3 (biotin conjugate),0.263

# — the supplement of paper PMC11865577
